In the series the target is T1, CasΦ3 (Cas12j-3) (Biggiephage).
T1 chain: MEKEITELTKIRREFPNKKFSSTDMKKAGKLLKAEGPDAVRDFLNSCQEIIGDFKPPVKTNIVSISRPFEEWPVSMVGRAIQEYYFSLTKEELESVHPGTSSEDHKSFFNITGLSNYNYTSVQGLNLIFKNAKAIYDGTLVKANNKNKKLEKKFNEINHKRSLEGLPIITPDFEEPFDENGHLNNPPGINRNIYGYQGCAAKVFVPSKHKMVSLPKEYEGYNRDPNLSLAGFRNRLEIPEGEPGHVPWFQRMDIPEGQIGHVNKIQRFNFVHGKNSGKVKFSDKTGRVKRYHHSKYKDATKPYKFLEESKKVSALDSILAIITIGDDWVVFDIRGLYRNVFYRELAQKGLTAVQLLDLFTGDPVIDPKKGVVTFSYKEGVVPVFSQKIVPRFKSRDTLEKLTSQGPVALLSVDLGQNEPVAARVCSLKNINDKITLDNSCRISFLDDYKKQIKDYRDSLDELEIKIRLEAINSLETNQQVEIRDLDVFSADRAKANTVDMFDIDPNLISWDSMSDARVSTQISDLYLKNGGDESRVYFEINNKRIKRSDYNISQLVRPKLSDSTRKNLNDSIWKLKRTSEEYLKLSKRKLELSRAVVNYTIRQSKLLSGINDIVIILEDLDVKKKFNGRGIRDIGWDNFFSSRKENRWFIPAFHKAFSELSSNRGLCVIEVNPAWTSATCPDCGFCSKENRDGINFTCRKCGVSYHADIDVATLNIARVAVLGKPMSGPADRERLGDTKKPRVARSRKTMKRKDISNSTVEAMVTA
Kind of series: structure; cryo-EM 2.7 Å R-loop product complex; PAM TTC; Ni2+. The settings on record: tags: C-terminal His6. How it is done: For the preparation of the Cryo-EM sample, Ni²⁺ was used as a catalytic ion instead of Mg²⁺ due to the higher yield obtained with this metal. CasΦ3 RNP was prepared as described before. 25 nmol of RNP and 37 nmol of unlabeled dsDNA substrate were incubated in 25 ml of MonoQ A buffer (20 mM HEPES pH7.5, 200 mM KCl, 1 mM NiSO₄, 0.5 mM TCEP) for 2 h at 20° C. to allow DNA cleavage. The product of the reaction was loaded in a MonoQ column equilibrated with MonoQ A buffer, and CasΦ3 R-loop complex was separated from the RNP and the unbound DNA substrate by a salt gradient elution using MonoQ B buffer (20 mM HEPES pH7.5, 2 M KCl, 1 mM NiSO₄, 0.5 mM TCEP). CasΦ3 R-loop eluted at 16-20% of MonoQ buffer B […]. […] 2.5 μL of freshly purified CasΦ3 R-loop complex (Absorbance_{260 nm} of ~1.6) was applied to UltrAuFoil 300 mesh R0.6/1.0 holey grids (Quantifoil), glow-discharged for 60 s at 10 mA (Leica EM ACE200), and plunge-frozen in liquid ethane (pre-cooled with liquid nitrogen) using a Vitrobot Mark IV (FEI, Thermo Fisher Scientific) using the next conditions: blotting time 3 s, 100% humidity and 4° C.
We reconstituted and characterized a functional CasΦ3-crRNA complex (FIG. 5) and determined the structure of the enzyme after severing a target dsDNA by cryo-EM (FIG. 1). […]

The text below walks through data of patent US20260234700, “MUTANT CAS12J ENDONUCLEASES” (University of Copenhagen, published 2026).

B1: CasΦ3 crRNA ; target dsDNA with TTC PAM (NT/T strands) (ssRNA ; dsDNA)
RNA: UAUUGAUUGCCCAGUACGCUGGGACAGCUGGUAAUGGGAUACCUU
DNA 1: GTAATTCAGCTGGTAATGGGATACCTTGTGCTACAGC
DNA 2: GCTGTAGCACAAGGTATCCCATTACCAGCTGAATTAC
Consider B1, for which the binding result is recorded as “binds”.
